Results as given in article doi:10.1101/2024.03.19.585040.
Read-outs that look alike come from different tables or passages of the source.

Assays:
[1] = biological target: Fatty acid kinase FakA (Staphylococcus aureus), wild type (Staphylococcus aureus); assay: mass photometry
[2] = biological target: Fatty acid kinase FakA (Staphylococcus aureus), wild type (Staphylococcus aureus); assay: SEC-SAXS
[3] = biological target: Fatty acid kinase FakA (Staphylococcus aureus), wild type (Staphylococcus aureus); assay: mass photometry; remark: listed apart in the source
[4] = biological target: His-tagged FakB2 (Staphylococcus aureus) (Staphylococcus aureus); assay: BLI
[5] = biological target: FakA H282A, H284A (Staphylococcus aureus) (Staphylococcus aureus); assay: mass photometry
[6] = biological target: FakA H282A, H284A (Staphylococcus aureus) (Staphylococcus aureus); assay: mass photometry; remark: listed apart in the source

| Substance | percent of the protein in the dimer peak [1] | stoichiometry N [2] | percent of the protein in the dimer peak [3] | stoichiometry N [3] | Kd [4] | percent of the protein in the dimer peak [5] | percent of the protein in the dimer peak [6] |
| --- | --- | --- | --- | --- | --- | --- | --- |
| Fatty acid kinase FakA (Staphylococcus aureus), wild type (enzyme) | 57% | 2 | 77% | 2 | 4.34 nM |  |  |
| FakA H282A, H284A (Staphylococcus aureus) (enzyme) |  |  |  |  |  | 24% | 63% |
